Assay results: paper PMC3593554

Molecular target: formyl peptide receptor (FPR1) on U87 astrocytoma cells (human (endogenous in U87)) (UniProt P21462)
Assay: flow cytometry on cells

Chain of UniProt P21462 (P21462 whole entry): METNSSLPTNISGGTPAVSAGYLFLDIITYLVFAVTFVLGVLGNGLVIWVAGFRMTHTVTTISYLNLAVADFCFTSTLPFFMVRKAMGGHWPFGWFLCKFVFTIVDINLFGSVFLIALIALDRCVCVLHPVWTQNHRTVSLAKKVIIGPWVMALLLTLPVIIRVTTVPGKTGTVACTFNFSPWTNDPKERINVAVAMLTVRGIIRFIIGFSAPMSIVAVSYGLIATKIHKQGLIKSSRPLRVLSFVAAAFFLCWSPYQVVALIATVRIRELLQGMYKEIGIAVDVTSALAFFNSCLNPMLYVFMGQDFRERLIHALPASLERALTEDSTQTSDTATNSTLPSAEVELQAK

Chemotaxis Inhibitory Protein of S. aureus (CHIPS) (from UniProt A6QIG7 29-149) (natural protein)
percent inhibition of fMLF-FITC binding at 100 ug/ml CHIPS: 81%
